From patent publication US20030064916A1 (Scripps Research, published 2003)

B1: p53.65-73 (peptide)
peptide: RMPEAAPPV
notes: also called hu-wt-p53 65-73; hu-p53.65-73
B2: p53.25-35 (peptide)
peptide: LLPENNVLSPL
notes: also called hu-wt-p53 25-35; hu-p53.25-35

Biological target: HLA-A2.1 (human, UniProt A*02:01)
Test: competition on EA2 cells: test peptide (100 mM [sic]) vs M1 58-66 (1 mM [sic]); % inhibition of CTL clone 12 lysis, E:T 0.3:1

Row | Binder | % inhibition of A2.1-binding of M1 (58-66) [%]
1 | GTAKSVTCT [hu-wt-p53 117-125] | 12
2 | AIYKQSQHM [hu-wt-p53 161-169] | 12
3 | DLMLSPDDI [hu-wt-p53 42-50] | 19
4 | VLSPLPSQAM [hu-wt-p53 31-40] | 23
5 | LLPENNVLS [hu-wt-p53 25-33] | 42
6 | QLAKTCPVQ [hu-wt-p53 136-144] | 15
7 | VLSPLPSQA [hu-wt-p53 31-39] | 38
8 | GLAPPQHLI [hu-wt-p53 187-195] | 62
9 | NLLGRNSFEV [hu-wt-p53 263-272] | 50
10 | VTCTYSPAL [hu-wt-p53 122-130] | 12
11 | STPPPGTRV [p53.149-157] | 29
12 | WVDSTPPPGT [hu-wt-p53 146-155] | 10
13 | LMLSPDDIEQ [hu-wt-p53 43-52] | 25
14 | ITLEDSSGNL [hu-wt-p53 255-264] | 24
15 | AAPTPAAPA [hu-wt-p53 78-86] | 51
16 | PLDGEYFTL (also called hu-p53.322-330) [hu-wt-p53 322-330] | 24
17 | NTFRHSVVV [hu-wt-p53 210-218] | 43
18 | B1 | 62
19 | AAPPVAPA [hu-wt-p53 69-76] | 46
20 | VAPAPAAPT [hu-wt-p53 73-81] | 12
21 | AAPPVAPAPAA [hu-wt-p53 69-79] | 4
22 | RLGILHSGTA [hu-wt-p53 110-119] | 10
23 | LLGRDSFEV (also called mur-p53.261-269) [mur-wt-p53 261-269] | 75
24 | AAPPVAPAPA [hu-wt-p53 69-78] | 41
25 | B2 | 65
26 | EMFRELNEA [hu-wt-p53 339-247] | 12
